Test results published in patent publication JP2002506420A.

Columns and labels:
[1] = molecular target: FcRII (Fc gamma receptor II on K562 cells) (UniProt P12318); assay: cell-based or functional assay
[2] = molecular target: ヒトCD3抗原 (human CD3 antigen on the surface of human T cells) (human) (UniProt P07766); assay: competition with 125I-labelled mouse M291 on IL-2-activated human T cells; affinity by the method of Berzofsky and Berkower
Chain of UniProt P07766 (P07766 23-207): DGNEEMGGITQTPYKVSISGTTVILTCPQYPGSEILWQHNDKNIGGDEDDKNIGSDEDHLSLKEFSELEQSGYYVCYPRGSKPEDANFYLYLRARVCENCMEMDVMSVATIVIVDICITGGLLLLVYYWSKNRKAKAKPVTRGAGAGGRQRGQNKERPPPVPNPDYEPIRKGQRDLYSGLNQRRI

Chain of UniProt P12318 (P12318 34-317): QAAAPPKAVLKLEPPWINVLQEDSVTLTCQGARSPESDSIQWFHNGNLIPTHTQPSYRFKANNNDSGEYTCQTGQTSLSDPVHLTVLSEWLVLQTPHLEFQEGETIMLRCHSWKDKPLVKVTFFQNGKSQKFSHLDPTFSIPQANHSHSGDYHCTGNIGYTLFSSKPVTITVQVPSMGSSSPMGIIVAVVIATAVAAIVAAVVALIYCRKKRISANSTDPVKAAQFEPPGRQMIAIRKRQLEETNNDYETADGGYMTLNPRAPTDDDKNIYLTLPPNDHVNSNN

| K562細胞の特異的溶解 (reverse lysis, 51Cr release) [1] [%] | Ka [2] [M⁻¹] | Substance |
| --- | --- | --- |
| < 32 |  | キメラOKT3 IgG2 (chimeric OKT3, wild-type human IgG2) (from UniProt P01859 1-326) (antibody) |
|  | 1.6e+09 | ヒト化M291 IgG1 (humanized M291, human IgG1) (from UniProt P01857 1-330) (antibody) |
